We go through one protein from publication PMC3273807 (Nucleic Acids Research, 2011).

This data set concerns the molecule itself. The experiment in a line: fluorescence polarisation. In general terms: In fluorescence polarisation assays a small probe gives low polarisation when free and higher when bound to something large.

B1: Wild-type FokI restriction endonuclease (enzyme)
chain: KIRTFGWVQNPGKFENLKRVVQVFDRNSKVHNEVKNIKIPTLVKESKIQKELVAIMNQHDLIYTYKELVGTGTSIRSEAPCDAIIQATIADQGNKKGYIDNWSSDGFLRWAHALGFIEYINKSDSFVITDVGLAYSKSADGSAIEKEILIEAISSYPPAIRILTLLEDGQHLTKFDLGKNLGFSGESGFTSLPEGILLDTLANAMPKDKGEIRNNWEGSSDKYARMIGGWLDKLGLVKQGKKEFIIPTLGKPDNKEFISHAFKITGEGLKVLRRAKGSTKFTRVPKRVYWEMLATNLTDKEYVRTRRALILEILIKAGSLKIEQIQDNLKKLGFDEVIETIENDIKGLINTGIFIEIKGRFYQLKDHILQFVIPNRGVTKQLVKSELEEKKSELRHKLKYVPHEYIELIEIARNSTQDRILEMKVMEFFMKVYGYRGKHLGGSRKPDGAIYTVGSPIDYGVIVDTKAYSGGYNLPIGQADEMQRYVEENQTRNKHINPNEWWKVYPSSVTEFKFLFVSGHFKGNYKAQLTRLNHITNCNGAVLSVEELLIGGEMIKAGTLTLEEVRRKFNNGEINF
In the case of B1, the binding result is “binds”.
